Assays:
Assay type in all cases: cell-based, human
[1] = test system: basophils in whole blood from HDM allergic donors; test: Basophil Activation Test (BAT); settings: blood from HDM allergic individuals (n=14)
Outline: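 Basophil activation was read by flow cytometry as increased surface activation markers. The stimulus was a 1 h exposure of blood from 14 HDM-allergic donors to test proteins or major mite allergens at graded concentrations (e.g. 1–1000 ng/ml).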

[2] = test system: T cell lines obtained from HDM allergic individuals and non-allergics; test: In vitro T cell proliferation test in T cell lines (Example 3); settings: 0.5 or 2 ug/ml, 72 h; for % responders of in-vitro T cell proliferation test, Allergic: T cell lines from HDM allergic individuals (n=30); for % responders of in-vitro T cell proliferation test, Non-allergics: T cell lines from non-allergics (n=8)
Outline: (§1)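 Freshly isolated PBMC (5×10^6/ml) from mite-allergic patients or non-allergics cultured 5 days with test protein up to 10 ug/ml; IFN-gamma, IL-9, IL-10, IL-17, IL-31 in supernatants by multiplex immunoassay. T cell lines, raised 3 weeks on HDM extract, tested at 0.5 or 2 ug/ml protein in 72 h proliferation assay.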

[3] = test system: PBMC cells obtained from mite allergic patients and non-allergics; test: Ex vivo stimulation of PBMC: cytokine production (IFN-gamma, IL-9, IL-10, IL-17, IL-31)
Outline: as §1

Row | Molecule | # of individuals of 14 with positive BAT test ([1]; 1 ng/ml) | # of individuals of 14 with positive BAT test ([1]; 10 ng/ml) | # of individuals of 14 with positive BAT test ([1]; 100 ng/ml) | # of individuals of 14 with positive BAT test ([1]; 1000 ng/ml) | % responders of in-vitro T cell proliferation test, Allergic [2] [%] | % responders of in-vitro T cell proliferation test, Non-allergics [2] [%] | % HDM allergic individuals with cytokine production in ex-vivo T cell assay IL-5 [3] [%] | % HDM allergic individuals with cytokine production in ex-vivo T cell assay IL-9 [3] [%] | % HDM allergic individuals with cytokine production in ex-vivo T cell assay IL-10 [3] [%] | % HDM allergic individuals with cytokine production in ex-vivo T cell assay IL-13 [3] [%] | % HDM allergic individuals with cytokine production in ex-vivo T cell assay IL-17 [3] [%] | % HDM allergic individuals with cytokine production in ex-vivo T cell assay IL-31 [3] [%] | % HDM allergic individuals with cytokine production in ex-vivo T cell assay INF-g [3] [%] | % non-allergic individuals with cytokine production in ex-vivo T cell assay IL-5 [3] [%] | % non-allergic individuals with cytokine production in ex-vivo T cell assay IL-9 [3] [%] | % non-allergic individuals with cytokine production in ex-vivo T cell assay IL-10 [3] [%] | % non-allergic individuals with cytokine production in ex-vivo T cell assay IL-13 [3] [%] | % non-allergic individuals with cytokine production in ex-vivo T cell assay IL-17 [3] [%] | % non-allergic individuals with cytokine production in ex-vivo T cell assay IL-31 [3] [%] | % non-allergic individuals with cytokine production in ex-vivo T cell assay INF-g [3] [%]
1 | Derf1: major house dust mite allergen, group 1, Dermatophagoides farinae; control (protein, UniProt P16311 99-321, looked up) Peptidase 1: TSACRINSVNVPSELDLRSLRTVTPIRMQGGCGSCWAFSGVAATESAYLAYRNTSLDLSEQELVDCASQHGCHGDTIPRGIEYIQQNGVVEERSYPYVAREQRCRRPNSQHYGISNYCQIYPPDVKQIREALTQTHTAIAVIIGIKDLRAFQHYDGRTIIQHDNGYQPNYHAVNIVGYGSTQGDDYWIVRNSWDTTWGDSGYGYFQAGNNLMMIEQYPYVVIM | 10 | 10 | 10 | 10 | 70 | 0 | 75 | 19 | 50 | 56 | 6 | 0 | 0 | 0 | 0 | 33 | 0 | 17 | 0 | 0
2 | Derf2: major house dust mite allergen, group 2, Dermatophagoides farinae; control (protein, UniProt Q00855 18-146, looked up) Mite group 2 allergen Der f 2: DQVDVKDCANNEIKKVMVDGCHGSDPCIIHRGKPFTLEALFDANQNTKTAKIEIKASLDGLEIDVPGIDTNACHFMKCPLVKGQQYDIKYTWNVPKIAPKSENVVVTVKLIGDNGVLACAIATHGKIRD | 13 | 13 | 13 | 13 | 67 | 14 | 63 | 50 | 81 | 69 | 13 | 6 | 6 | 0 | 0 | 33 | 0 | 67 | 0 | 17
3 | A025: house dust mite protein; SEQ ID NO: 17 (Der f), 18 (Der p) (protein) QSLFVDYNDYSCGSSQNETNELIQEFKIFKKNINGNENFKKINDFIEKARLFRDNAAKQMLEIDQQLLTLNVIQISQRIKLENNKIQCEKLTKFSELLSMQLLAYEVGMFEFAEEIDPNIDFDRKMKNFLDETSRLFNLAEFEKLEKKFRNATSIEKLKNYIDGELVALNDYINEFLKDIIMSEFTVQSRYYLNFSIEDQVQIDSTLMTFSALKILLNDLKDYLEHLDN | 1 | 1 | 1 | 5 | 0 | 0 | 13 | 6 | 6 | 13 | 0 | 0 | 0 | 0 | 0 | 0 | 0 | 0 | 0 | 0
4 | Derp1: major house dust mite allergen, group 1, Dermatophagoides pteronyssinus; control (protein, UniProt P08176 99-320, looked up) Peptidase 1: TNACSINGNAPAEIDLRQMRTVTPIRMQGGCGSCWAFSGVAATESAYLAYRNQSLDLAEQELVDCASQHGCHGDTIPRGIEYIQHNGVVQESYYRYVAREQSCRRPNAQRFGISNYCQIYPPNVNKIREALAQTHSAIAVIIGIKDLDAFRHYDGRTIIQRDNGYQPNYHAVNIVGYSNAQGVDYWIVRNSWDTNWGDNGYGYFAANIDLMMIEEYPYVVIL | 7 | 10 | 10 | 10 | 73 | 13 | 50 | 6 | 50 | 50 | 6 | 0 | 0 | 0 | 0 | 17 | 0 | 17 | 0 | 0
